Experimental data published in doi:10.1101/2024.03.07.583919 (bioRxiv, 2024).

Molecular target: the molecule itself
Assay: SEC

Protein | binding result
wild-type human GCAP1-E6S (Guanylate Cyclase Activating Protein 1), myristoylated (natural protein, myristoylated at the N-terminal (by S. cerevisiae N-myristoyltransferase)) MGNVMSGKSVEELSSTECHQWYKKFMTECPSGQLTLYEFRQFFGLKNLSPSASQYVEQMFETFDFNKDGYIDFMEYVAALSLVLKGKVEQKLRWYFKLYDVDGNGCIDRDELLTIIQAIRAINPCSDTTMTAEEFTDTVFSKIDVNGDGELSLEEFIEGVQKDQMLLDTLTRSLDLTRIVRRLQNGEQDEEGADEAAEAAG | binds
E111V-GCAP1 (human GCAP1-E6S with the cone-rod dystrophy substitution E111V), myristoylated (natural protein, myristoylated at the N-terminal (by S. cerevisiae N-myristoyltransferase)) MGNVMSGKSVEELSSTECHQWYKKFMTECPSGQLTLYEFRQFFGLKNLSPSASQYVEQMFETFDFNKDGYIDFMEYVAALSLVLKGKVEQKLRWYFKLYDVDGNGCIDRDVLLTIIQAIRAINPCSDTTMTAEEFTDTVFSKIDVNGDGELSLEEFIEGVQKDQMLLDTLTRSLDLTRIVRRLQNGEQDEEGADEAAEAAG | binds
